These results are taken from patent publication US20180245067A1 (UNIVERSITY OF LEEDS, published 2018).

Numbering of substitutions follows the chain as printed.

Sequences and labels used below:
B1: PHYTC57 (designed binder)
chain: MAALLGGVRAVPGNENSLEIEELARFAVDEHNKKENALLEFVRVVKAKEQVVAGTMYYLTLEAKDGGKKKLYEAKVWVKPWETFKELQEFKPVGDARGSHHHHHH
notes: also called consensus phytocystatin; consensus cystatin
B2: OSA-IΔD86 (other)
chain: MSSDGGPVLGGVEPVGNENDLHLVDLARFAVTEHNKKANSLLEFEKLVSVKQQVVAGTLYYFTIEVKEGDAKKLYEAKVWEKPWMFKELQEFKPVDASANARGSHHHHHH
notes: also called OSA1ΔD86; modified oryzacystatin lacking residue Asp86
B3: Ad-ySUMO 1 (designed binder)
chain: NSLEIEELARFAVDEHNKKENALLEFVRVVKAKEQWDLTGNVDTTMYYLTLEAKDGGKKKLYEAKVWVKWDDWGERFWNFKELQEFKPVGDA
notes: also called clone 1
B4: Ad-ySUMO 19 (designed binder)
chain: NSLEIEELARFAVDEHNKKENALLEFVRVVKAKEQWSEADNDWHTMYYLTLEAKDGGKKKLYEAKVWVKLDLETWQHFNFKELQEFKPVGDA
notes: also called clone 19
B5: Ad-ySUMO 6 (designed binder)
chain: NSLEIEELARFAVDEHNKKENALLEFVRVVKAKEQIDLTEWQDRTMYYLTLEAKDGGKKKLYEAKVWVKPEPIHSHHSNFKELQEFKPVGDA
notes: also called clone 6
B6: Ad-ySUMO 8 (designed binder)
chain: NSLEIEELARFAVDEHNKKENALLEFVRVVKAKEQIDLTQTEIVTMYYLTLEAKDGGKKKLYEAKVWVKEPGIIPIVHNFKELQEFKPVGDA
notes: also called clone 8
B7: Ad-ySUMO 17 (designed binder)
chain: NSLEIEELARFAVDEHNKKENALLEFVRVVKAKEQWYLLDVMDDTMYYLTLEAKDGGKKKLYEAKVWVKHDRRYKQAENFKELQEFKPVGDA
notes: also called clone 17
B8: Ad-ySUMO 13 (designed binder)
chain: NSLEIEELARFAVDEHNKKENALLEFVRVVKAKEQWDLTTPINITMYYLTLEAKDGGKKKLYEAKVWVKYEDYQTPMYNFKELQEFKPVGDA
notes: also called clone 13
B9: Ad-ySUMO 12 (designed binder)
chain: NSLEIEELARFAVDEHNKKENALLEFVRVVKAKEQWYERSENWDTMYYLTLEAKDGGKKKLYEAKVWVKRDYGFTLVPNFKELQEFKPVGDA
notes: also called clone 12
B10: Ad-ySUMO 2 (designed binder)
chain: NSLEIEELARFAVDEHNKKENALLEFVRVVKAKEQIDLTNSFASTMYYLTLEAKDGGKKKLYEAKVWVKDINQYWHSMNFKELQEFKPVGDA
notes: also called clone 2
B11: Ad-ySUMO 24 (designed binder)
chain: NSLEIEELARFAVDEHNKKENALLEFVRVVKAKEQWEDFQTHWETMYYLTLEAKDGGKKKLYEAKVWVKDVGQLLSGINFKELQEFKPVGDA
notes: also called clone 24
B12: Ad-ySUMO 23 (designed binder)
chain: NSLEIEELARFAVDEHNKKENALLEFVRVVKAKEQIDLTQPHDSTMYYLTLEAKDGGKKKLYEAKVWVKPHDELNWNMNFKELQEFKPVGDA
notes: also called clone 23
B13: Ad-ySUMO 7 (designed binder)
chain: NSLEIEELARFAVDEHNKKENALLEFVRVVKAKEQWVDMDYYWRTMYYLTLEAKDGGKKKLYEAKVWVKMDEIWAEYANFKELQEFKPVGDA
notes: also called clone 7
B14: Ad-ySUMO 3 (designed binder)
chain: NSLEIEELARFAVDEHNKKENALLEFVRVVKAKEQINLMMVSPMTMYYLTLEAKDGGKKKLYEAKVWVKGIQQNPSHANFKELQEFKPVGDA
notes: also called clone 3
B15: Ad-ySUMO 18 (designed binder)
chain: NSLEIEELARFAVDEHNKKENALLEFVRVVKAKEQWIDRGQYWDTMYYLTLEAKDGGKKKLYEAKVWVKIHNGYTIMDNFKELQEFKPVGDA
notes: also called clone 18
B16: Ad-ySUMO 4 (designed binder)
chain: NSLEIEELARFAVDEHNKKENALLEFVRVVKAKEQIDLTHSLNYTMYYLTLEAKDGGKKKLYEAKVWVKGLTNEIQKMNFKELQEFKPVGDA
notes: also called clone 4
B17: Ad-ySUMO 5 (designed binder)
chain: B16 chain
notes: also called clone 5
B18: Ad-ySUMO 9 (designed binder)
chain: NSLEIEELARFAVDEHNKKENALLEFVRVVKAKEQIDLTDVWIDTMYYLTLEAKDGGKKKLYEAKVWVKGLMTQTNSMNFKELQEFKPVGDA
notes: also called clone 9
B19: Ad-ySUMO 14 (designed binder)
chain: NSLEIEELARFAVDEHNKKENALLEFVRVVKAKEQWFDDEYDWITMYYLTLEAKDGGKKKLYEAKVWVKDYAATDLYWNFKELQEFKPVGDA
notes: also called clone 14
B20: Ad-ySUMO 10 (designed binder)
chain: NSLEIEELARFAVDEHNKKENALLEFVRVVKAKEQIIIHENDADTMYYLTLEAKDGGKKKLYEAKVWVKGIMDGLNKYNFKELQEFKPVGDA
notes: also called clone 10
B21: Ad-ySUMO 22 (designed binder)
chain: B12 chain with P41S, H42F, S44M, H71I, E73S, L74N, N75F, W76T, N77G, M78T
notes: also called clone 22
B22: Ad-ySUMO 15 (designed binder)
chain: B12 chain with P70Y, H71E, D72E, E73D, L74E, N75Y, N77R
notes: also called clone 15; Yeast Sumo Adhiron 15
B23: Ad-ySUMO 20 (designed binder)
chain: NSLEIEELARFAVDEHNKKENALLEFVRVVKAKEQIDLTGQWLFTMYYLTLEAKDGGKKKLYEAKVWVKPLWQYDAQYNFKELQEFKPVGDA
notes: also called clone 20
B24: CEWC (other, chicken)
chain: SEDRSRLLGAPVPVDENDEGLQRALQFAMAEYNRASNDKYSSRVVRVISAKRQLVSGIKYILQVEIGRTTCPKSSGDLQSCEFHDEPEMAKYTTCTFVVYSIPWLNQIKLLESKCQRGSHHHHHH
notes: also called chicken egg white cystatin

T2 sequence (Q12306 1-98 limits assumed): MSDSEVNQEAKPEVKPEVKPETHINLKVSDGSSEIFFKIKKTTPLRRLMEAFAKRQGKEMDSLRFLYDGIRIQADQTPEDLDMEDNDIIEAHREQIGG
T3 sequence (P63165 1-97 limits assumed): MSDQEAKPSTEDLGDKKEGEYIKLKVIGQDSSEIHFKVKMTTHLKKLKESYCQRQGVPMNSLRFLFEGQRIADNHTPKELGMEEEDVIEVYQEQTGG

The target of the first test is T1, papain (UniProt P00784 134-345).
T1 sequence (looked up): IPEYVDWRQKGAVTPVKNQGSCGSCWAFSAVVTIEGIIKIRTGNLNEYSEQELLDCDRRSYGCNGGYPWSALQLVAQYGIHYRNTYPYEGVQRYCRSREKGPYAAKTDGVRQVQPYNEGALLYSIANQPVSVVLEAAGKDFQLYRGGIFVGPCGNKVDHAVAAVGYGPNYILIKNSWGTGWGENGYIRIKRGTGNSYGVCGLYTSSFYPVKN
In words: cell-based or functional assay.
Regarding B1, the “IC50, papain inhibition assay with pGlu-Phe-Leu-p-nitroanilide” value was found to be 4.6e-08 M.

On to B2, for which the “IC50, papain inhibition assay with pGlu-Phe-Leu-p-nitroanilide” value worked out at 1.8e-07 M.

The next test has as its target T2, yeast Small Ubiquitin-like Modifier protein (SUMO) (yeast, UniProt Q12306 1-98 = SUMO).
T2 construct: also called ySUMO; yeast SUMO
In words: phage ELISA on biotinylated ySUMO. (An ELISA detects its analyte on a solid surface through an enzyme-linked reagent.)
As for B3, the binding result was “binds”.

Regarding B4, the binding result is reported as “binds”.

Turning to B5, the binding result is given as “binds”. The same measure, in the same setting: then B6, with “binds”; and B7, with “binds”. For B8, the binding result was “binds”. Take B9: the binding result was “binds”. For B10, the binding result is “binds”. Still for that read-out and setting: then B11, with “binds”; and B12, with “binds”.

Turning to B13, the binding result was “binds”. For B14, the binding result is listed as “binds”. On to B15, for which the binding result was “binds”. B16: the binding result is “binds”. For the molecule B17, the binding result is listed as “binds”. On to B18, for which the binding result is “binds”. Consider B19, for which the binding result is “binds”.

Another test has as its target T3, human SUMO1 (human, UniProt P63165 1-97).
T3 construct: also called hSUMO1
In words: ELISA and Western blot with biotinylated Adhiron.
Consider B20, for which the binding result is recorded as “no binding”. The same measure, in the same setting: then B21, with “no binding”; and B22, with “no binding”; and B23, with “no binding”.

In the next test the target is T2, yeast Small Ubiquitin-like Modifier …. In words: BioLayer Interferometry (BLitz), biotinylated Adhiron on streptavidin biosensor, global fit. (In general: In BLI a coated tip is dipped into the sample, and binding shifts an interference pattern.)
As for B20, binding was characterised by a dissociation constant (Kd) of 11.5 nM. For B21, binding was put at a Kd of 9 nM. On the same count and under the same terms, to B22 belongs 2.4 nM; to B23, 14.2 nM.

A further test has as its target T1, papain. In words: SPR (BIACORE 3000), cystatin on NTA chip via His tag, papain as analyte, 1:1 Langmuir fit.
The molecule B24 showed a Ka of 2.6e+09 M⁻¹, a Kd of 0.39 nM and a kon of 1.3e+06 M⁻¹ s⁻¹. B1 yielded a Ka of 1.6e+11 M⁻¹, a Kd of 0.0063 nM and a kon of 350000 M⁻¹ s⁻¹. The molecule B2 returned a Ka of 2.1e+08 M⁻¹.

Broadly, the Kd is the constant that tells how readily two partners part at equilibrium. A lower Kd goes with higher affinity. One may read the kon as the rate constant with which the complex forms. A higher kon goes with fast association.
